Data taken from the DeepSol protein solubility set.

experiment: soluble on expression in E. coli; label from the status in PepcDB or PDB records

Sequence	soluble on expression in E. coli
SSEAYFPVESGALGPEENFLSLDDILMSQEKLPVRVETPMPRLGAFFLERGAGSEPDHPLPQGTKLELPLWLAKGLFDHKRRILSVELPKMYQEGWRTVFSADANVVDLHKMGPHFYGFGSQLLHFDSPENADISQSLLKTFIGRFRRIMDSSQNSYNEDTSALVARLDETERGLFQIGQRSLNDFQSWEKGQASQITASSLVQNYKKRKFTNMED	soluble
SSPSLLEPLLAMGFPVHTALKALAATGRKTAEEALAWLHDHCNDPSLDDPI	soluble
SSRKSGIGHEASLKRKAEEKLESYRKKIHMKNQAEEKAAEQFRMRLKNKQDEMKLEGDLRRSQRACQQLDVQKNIQVPREAWYWLRLEEETEEDEEEKEQDEDEYKSEDLSVLEKLQILTSYLREEHLYCIWCGTAYEDKEDLSSNCPGPTSADHD	soluble
SSSLKIASTQEARQYFDTDRVVVDAVGSDFTDVGAVIAMDYETDVIDAADATKFGIPVFAVTKDAQAISADELKKIFHIIDLENKFDATVNAREIETAVNNYEDSILPPFFKSLKEYVSRYLIQFDCPGHQGGQYYRKHPAGREFYDFFGETVFRADLCNADVALGDLLIHEGPAVAAEKHAARVYNADKTYFVLGGSSNANNTVTSALVSNGDLVLFDRNNHKSVYNSALAMAGGRPVYLQTNRNPYGFIGGIYDSDFDEKKIRELAAKVDPERAKWKRPFRLAVIQLGTYDGTIYNAHEVVKRIGHLCDYIEFDSAWVGYEQFIPMMRNSSPLLIDDLGPEDPGIIVVQSVHKQQAGFSQTSQIHKKDSHIKGQLRYCDHKHFNNSFNLFMSTSPFYPMYAALDVNAAMQEGEAGRKLWHDLLITTIEARKKLIKAGSMFRPFVPPVVNGKKWEDGDTEDMANNIDYWRFEKGAKWHAYEGYGDNQYYVDPNKFMLTTPGINPETGDYEDFGVPATIVANYLRDHGIIPEKSDLNSILFLMTPAETPAKMNNLITQLLQLQRLIEEDAPLKQVLPSIYAANEERYNGYTIRELCQELHDFYKNNNTFTYQKRLFLREFFPEQGMLPYEARQEFIRNHNKLVPLNKIEGEIALEGALPYPPGVFCVAPGEKWSETAVKYFTILQDGINNFPGFAPEIQGVYFKQEGDKVVAYGEVYDAEVAKNDDRYNN	soluble
SSSLTSENAETKVGVFWDVEECPVPDGVEPSVVCENIKLALEKKGYRPCNVSIRVYGERTNKFKDDFLLADIMFLPAGDEGARFMRMCNDFFCWGNDNRKSTLMVMSRDSTEFASSFVMYKNLNFNILVAQPENVDRKCPVCRKPLEMIITDEWVWESLSAGGDPLPKTQEEPDLSNSCH	soluble
SSVIDKPQVNESAFHRAEPEERESQPETTPQYSPQSVSTTVPERVYQAIDKTPTYPGRTDYEIKPRDRAPSDSSVREARIADSFKRTDWIESKLAPKPNVGKERHAEPAPSKREVHAYHELLKTPDFESQQAEQPTSIESVREVSLPQVTALGKALVVVDEQFVLMSSDSGVALVSLPRSEFYRTKGQLTPSEGALKAQPLLVPLSMKLDTDLVRLAQDYQQDFAQLGIQLKARNDKALMVMGVPAPLRQQNLQNLVPDLLSYAQTWMKGEKASTQMLPALIDWLAVQVTTVKSHYTLSEAIQIIAELEQLRHGQLPLDDKTFVSAVDFSATIAKLKP	not soluble
SSVSGLKAELKFLASIFDKNHERFRIVSWKLDELHCQFLVPQQGSPHSLPPPLTLHCNITESYPSSSPIWFVDSEDPNLTSVLERLEDTKNNNLLRQQLKWLICELCSLYNLPKHLDVEMLDQPLPTGQNGTTEEVTSEEEEEEEEMAEDIEDLDHYEMKEEEPISGKKSEDEGIEKENLAILEKIRKTQRQDHLNGAVSGSVQASDRLMKELRDIYRSQSYKTGIYSVELINDSLYDWHVKLQKVDPDSPLHSDLQILKEKEGIEYILLNFSFKDNFPFDPPFVRVVLPVLSGGYVLGGGALCMELLTKQGWSSAYSIESVIMQINATLVKGKARVQFGANKNQYNLARAQQSYNSIVQIHEKNGWYTPPKEDG	not soluble
STDYGEEQRNELEALESIYPDSFTVLSESPPSFTITVTSEAGENDETVQTTLKFTYSEKYPDETPLYEIFSQENLEDNDVSDILKLLALQAEENLGMVMIFTLVTAVQEKLNEIVDQIKTRREEEKKQKEKEAEEAEKKLFHGTPVTIENFLSWKAKFDAELLEIKKKRMKEEEQAGKNKLSGKQLFETDHNLDTSDIQFLEDAGNNVEVDESLFQEMDDLELEDGEDDPDYNPVAPGSDSSD	soluble
STEESMYTRIIKELPREGSSDVLVIKNEHVKKSDIWPSGGEMVVKDLTVKYMDDGNAVLENISFSISPGQRVGLLGRTGSGKSTLLSAFLRMLNIKGDIEIDGVSWNSVTLQEWRKAFGVITQKVFIFSGTFRQNLDPNGKHKDEEINKVADEVGLKSVIEQFPGQLNFTLVDGGYVLSHGHKQLMCLARSVLSKAKIILLDEPSAHLDPITYQVIRRVLKQAFAGCTVILCEHRIEAMLDCQRFLVIEESNVWQYDSLQALLSEKSIFQQAISSSEKMRFFQGRHSSKHKPRTQITALKEETEEEVQETRL	soluble
STFSKAAPSVPSKPSDCNFISNFYSHSRLHHISMWKCELTEFVNTLQRQSNGIFPGREKLKKMKTGRSALVVTDTGDMSVLNSPRHQSCIMHVDMDCFFVSVGIRNRPDLKGKPVAVTSNRGTGRAPLRPGANPQLEWQYYQNKILKGKAADIPDSSLWENPDSAQANGIDSVLSRAEIASCSYEARQLGIKNGMFFGHAKQLCPNLQAVPYDFHAYKEVAQTLYETLASYTHNIEAVSCDEALVDITEILAETKLTPDEFANAVRMEIKDQTKCAASVGIGSNILLARMATRKAKPDGQYHLKPEEVDDFIRGQLVTNLPGVGHSMESKLASLGIKTCGDLQYMTMAKLQKEFGPKTGQMLYRFCRGLDDRPVRTEKERKSVSAEINYGIRFTQPKEAEAFLLSLSEEIQRRLEATGMKGKRLTLKIMVRKPGAPVETAKFGGHGICDNIARTVTLDQATDNAKIIGKAMLNMFHTMKLNISDMRGVGIHVNQLVPTNLNPST	soluble
STKLTGYVWDGCAASGMKLSSVAIMARLADFSNDEGVCWPSIETIARQIGAGMSTVRTAIARLEAEGWLTRKARRQGDGSSPHCAVVDEYHEHATDALYTTMLTGMGARRQPLMWAITTAGYNIEGPCYDKRREVIEMLNGSVPNDELFGIIYTVDEGDDWTDPQVLEKANPNIGVSVYREFLLSQQQRAKNNARLANVFKTKHLNIWASARSAYFNLVSWQSCEDKSLTLEQFEGQPCILAFDLARKLDMNSMARLYTREIDGKTHYYSVAPRFWVPYDTVYSVEKNEDRRTAERFQKWVEMGVLTVTDGAEVDYRYILEEAKAANKISPVSESPIDPFGATGLSHDLADEDLNPVTIIQNYTNMSDPMKELEAAIESGRFHHDGNPIMTWCIGNVVGKTIPGNDDVVKPVKEQAENKIDGAVALIMAVGRAMLYEKEDTLSDHIESYGIRSL	soluble
STSPEIASLSWGQMKVKGSNTTYKDCKVWPGGSRTWDWRETGTEHSPGVQPADVKEVVEKGVQTLVIGRGMSEALKVPSSTVEYLKKHGIDVRVLQTEQAVKEYNALVAQGVRVGGVFHSTC	soluble
STTEVVMENVTAFWEEGFGELFEKAKQNNNNRKTSNGDDSLSFSNFSLLGTPVLKDINFKIERGQLLAVAGSTGAGKTSLLMMIMGELEPSEGKIKHSGRISFCSQNSWIMPGTIKENIIFGVSYDEYRYRSVIKACQLEEDISKFAEKDNIVLGEGGITLSGGQRARISLARAVYKDADLYLLDSPFGYLDVLTEKEIFESCVCKLMANKTRILVTSKMEHLKKADKILILHEGSSYFYGTFSELQNERPDFSSKLMGCDSFDQFSAERRNSILTETLHRFSLEGDAPVSENLYFQGDKDCEMKRTTLDSPLGKLELSGCEQGLHEIKLLGKGTSAADAVEVPAPAAVLGGPEPLMQATAWLNAYFHQPEAIEEFPVPALHHPVFQQESFTRQVLWKLLKVVKFGEVISYQQLAALAGNPAATAAVKTALSGNPVPILIPCHRVVSSSGAVGGYEGGLAVKEWLLAHEGHRLGKPGLG	soluble
SVCKGVSGNPAKGEVFLYKHVNFQGDSWKVTGNVYDFRSVSGLNDVVSSVKVGPNTKAFIFKDDRFNGNFIRLEESSQVTDLTTRNLNDAISSMIVATFESA	soluble
